pKd: −log10 of the molar value.
Target: C4BPα1–2 (His6-tagged fragment of human C4b-binding protein) (human)
Assay: ITC; 23 °C, PBS; 300 to 500 μM intact M2 or M2G in the syringe, 30 to 50 μM C4BPα1–2 in the cell; single-site model

| Substance | pKd | dH | stoichiometry N |
| --- | --- | --- | --- |
| M2G (M2_(53)G; M2 aa 53–86 fused to GCN4) | 5.40 | -27 kcal/mol | 0.51 |
| intact M2 protein (Streptococcus pyogenes, strain AP2) (natural protein) | 5.40 | -24 kcal/mol | 0.5 |
